US5679782A, “Oligonucleotides encloding peptide inhibitors of urokinase receptor activity” (Chiron Corporation, priority 1995, dated 1997)
Where two headings read alike, the source gives them in different places. Peptide text beside a SMILES is read from it.

Legend:
[1] = target: T1, substance P receptor (SPR) (Homo sapiens, UniProt P25103); experiment: Recovery of phage on Sf9 cells expressing substance P receptor (control); format: binding; settings: phage displaying the sequence
T1 construct: expressed in transfected cells; host or cells: Sf9 insect cells
T1 sequence (P25103 whole entry, species assumed): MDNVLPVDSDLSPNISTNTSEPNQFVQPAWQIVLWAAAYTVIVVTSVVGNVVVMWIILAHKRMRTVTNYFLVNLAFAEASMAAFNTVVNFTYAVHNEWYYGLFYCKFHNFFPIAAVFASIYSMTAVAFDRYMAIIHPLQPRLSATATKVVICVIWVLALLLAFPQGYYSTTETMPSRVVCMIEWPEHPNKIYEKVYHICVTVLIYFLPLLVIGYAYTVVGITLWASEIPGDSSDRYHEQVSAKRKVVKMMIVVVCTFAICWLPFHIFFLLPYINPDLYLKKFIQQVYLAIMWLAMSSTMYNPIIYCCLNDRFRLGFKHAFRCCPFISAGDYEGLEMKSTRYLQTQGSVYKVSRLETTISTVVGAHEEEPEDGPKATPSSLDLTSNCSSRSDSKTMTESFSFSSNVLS
Description: (§1) 3.) The phage selected in round 2 were reselected on Sf9 cells expressing fluPAR (day 2 post-infection) as described for round 1 (2.8×10^10 phage on 10^6 Sf9 cells). The yield of binding phage from this round was 5.40% (1.5×10^9 pfu), indicating a substantial enrichment in binding phage. Sample phage from the urea eluate were cloned, and their DNAs isolated and sequenced. Binding was assayed against Sf9 cells expressing fluPAR, and Sf9 cells expressing substance P receptor ("SPR," as a control).

huPAR = target: T2, huPAR (Homo sapiens, UniProt Q03405); experiment: Recovery of phage on Sf9 cells expressing full length huPAR; format: binding; settings: phage displaying the sequence; Sf9 cells expressing fluPAR
T2 construct: Sf9 cells expressing full length huPAR ("fluPAR", day 2 post infection); expressed in transfected cells; host or cells: Sf9 insect cells (day 2 post infection)
T2 sequence (Q03405 23-335): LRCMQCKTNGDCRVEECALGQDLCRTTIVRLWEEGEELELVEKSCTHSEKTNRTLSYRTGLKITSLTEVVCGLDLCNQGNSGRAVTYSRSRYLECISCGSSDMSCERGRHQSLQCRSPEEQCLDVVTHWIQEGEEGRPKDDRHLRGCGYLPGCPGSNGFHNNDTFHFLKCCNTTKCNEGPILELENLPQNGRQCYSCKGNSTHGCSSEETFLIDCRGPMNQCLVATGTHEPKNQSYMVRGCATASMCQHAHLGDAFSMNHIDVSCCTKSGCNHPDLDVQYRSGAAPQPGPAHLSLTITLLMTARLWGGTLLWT
Description: 1.) 15mer phage (2.5×10^10) prepared as described above were selected by coincubation with 10^6 Sf9 cells expressing full length huPAR ("fluPAR", day 2 post infection) at room temperature for 60 minutes in Grace's medium with 2% nonfat milk. Binding phage were eluted with 6M urea (pH 2.2), the pH neutralized by adding 2M Tris-HCl, and assayed. The yield of binding phage was 0.0013% (3.3×10^5 pfu). The phage were amplified on solid agar plates as plaques, eluted with Tris-buffered saline, and precipitated with polyethylene glycol.
as §1

human urokinase receptor = target: T3, human urokinase receptor (Homo sapiens, UniProt Q03405); experiment: Competition of 125I-ATF binding to immobilized soluble recombinant human urokinase receptor; settings: read-out: Affinity
T3 construct: expressed as a truncated, soluble molecule as described previously for mouse L-cells (Masucci et al., J Biol Chem (1991) 266:8655); made in house; host or cells: baculovirus / insect cells
T3 sequence (Q03405 23-299 limits assumed): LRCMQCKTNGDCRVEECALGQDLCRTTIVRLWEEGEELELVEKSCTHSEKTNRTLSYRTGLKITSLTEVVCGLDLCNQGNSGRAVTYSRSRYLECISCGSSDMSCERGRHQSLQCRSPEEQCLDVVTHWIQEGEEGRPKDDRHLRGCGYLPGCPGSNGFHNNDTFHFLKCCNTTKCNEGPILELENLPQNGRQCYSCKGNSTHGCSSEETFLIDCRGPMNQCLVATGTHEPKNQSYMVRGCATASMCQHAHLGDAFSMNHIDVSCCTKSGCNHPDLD
From the text: 4.) The peptides encoded by 25 phage were then synthesized by solid phase peptide chemistry on an Applied Biosystems Model 430A peptide synthesizer,using Boc chemistry, or were obtained from Chiron Mimotopes, Ltd., as soluble peptides. All peptides contained the Ala-Glu dipeptide at the amino terminus and were amidated at the carboxy terminus.
Baculovirus-derived recombinant human urokinase receptor was expressed as a truncated, soluble molecule as described previously for mouse L-cells (Masucci et al., J Biol Chem (1991) 266:8655). The purified receptor was biotinylated with NHS-biotin, and immobilized at 1 μg/mL in PBS/0.1% BSA on streptavidin coated 96-well plates. Human uPA ATF (residues 1-135, obtained from M. Shuman, University of California, San Francisco) was iodinated using the Iodogen method (Pierce), and used as tracer. The ^125 I-ATF was incubated at 100-500 pM with increasing amounts of peptide from 1 nM to 10 μM in triplicate for 2 hours at room temperature in 0.1% BSA/PBS in a total volume of 200 μL. The plates were then washed 3 times with PBS/BSA, and the remaining bound radioactivity determined.
*Assay performed at 100 pM ATF, 0.3 μg/ml suPAR in 200 μL. Other
assays are corrected to these conditions; corrections are about 3 ×
from previous assay conditions.

uPAR = uPAR (Homo sapiens, UniProt Q03405); settings: Appella et al. 1987; cited from earlier work
uPAR, sequence (Q03405 23-335, species assumed): as the sequence (Q03405 23-335) above

[2] = unstarred values: corrected to 100 pM ATF, 0.3 μg/ml suPAR, corrections about 3 × from previous assay conditions

## 37 (AECLNGGTAVSNKYFSNIHWCN) [compound 37]
[1]
  % Recovery SPR: 0.008%
huPAR
  % Recovery huPAR: 6.8%

## CSCC[C@H](NC(=O)[C@@H](NC(=O)[C@H](CC(N)=O)NC(=O)[C@H](CO)NC(=O)[C@H](CC(C)C)NC(=O)[C@H](Cc1ccccc1)NC(=O)[C@H](Cc1c[nH]c2ccccc12)NC(=O)[C@H](C)NC(=O)[C@H](CCC(=O)O)NC(=O)[C@H](C)N)[C@@H](C)O)C(=O)N[C@@H](CCCCN)C(=O)N[C@@H](C)C(=O)N[C@@H](CC(C)C)C(=O)N[C@@H](CO)C(=O)N[C@@H](C)C(=O)N[C@@H](CCCNC(=N)N)C(=O)N[C@@H](CC(C)C)C(N)=O [compound 13] (H-AEAWFLSNTMKALSARL-NH2)
Human urokinase receptor; [2]
  Kd: 5 µM

## CC(C)C[C@H](NC(=O)CNC(=O)[C@@H]1CCCN1C(=O)[C@H](Cc1c[nH]cn1)NC(=O)[C@H](Cc1c[nH]c2ccccc12)NC(=O)[C@H](CCC(=O)O)NC(=O)[C@H](C)N)C(=O)N[C@@H](CO)C(=O)N[C@@H](Cc1ccccc1)C(=O)NCC(=O)N[C@@H](CO)C(=O)N[C@@H](Cc1ccc(O)cc1)C(=O)N[C@@H](CC(C)C)C(=O)N[C@@H](Cc1c[nH]c2ccccc12)C(=O)N[C@@H](CO)C(=O)N[C@@H](CCCCN)C(=O)N[C@H](C(N)=O)[C@@H](C)O [compound 2] (H-AEWHPGLSFGSYLWSKT-NH2)
Human urokinase receptor; [2]
  Kd: 0.35 µM

## uPA12-32: The critical domain alone, residues 12-32 of uPA EGF-like domain (DCLNGGTCVSNKYFSNIHWCN; UniProt P00749 32-52, looked up, fragment)
uPAR
  affinity fold less than intact ATF: about 100 fold

## CC(C)C[C@H](NC(=O)[C@H](CCCNC(=N)N)NC(=O)[C@H](CC(C)C)NC(=O)[C@@H]1CCCN1C(=O)[C@H](Cc1ccccc1)NC(=O)[C@H](CCC(N)=O)NC(=O)[C@H](Cc1ccc(O)cc1)NC(=O)[C@H](CC(C)C)NC(=O)[C@H](CCC(N)=O)NC(=O)[C@H](Cc1c[nH]c2ccccc12)NC(=O)[C@H](CC(C)C)NC(=O)[C@@H](NC(=O)[C@@H]1CCCN1C(=O)[C@H](CCC(=O)O)NC(=O)[C@H](C)N)[C@@H](C)O)C(=O)N[C@@H](CO)C(=O)NCC(N)=O [compound 14] (H-AEPTLWQLYQFPLRLSG-NH2)
Human urokinase receptor; starred values: assay performed at 100 pM ATF, 0.3 μg/ml suPAR in 200 μL
  Kd: 4 µM
